# Results from the supplement of paper PMC11316812.
# ± gives the standard deviation of the averaged measurements.
# Columns and labels:
# MCF7 = test: percentage of EdU-negative (G0-arrested) nuclei per well, 72 h; higher = more G0 arrest; conditions: reference: sequence is the full UniProt precursor, the tested protein was the secreted form or ectodomain
# hTERT-HMEC = test: as above; conditions: reference: sequence is the full UniProt precursor, the tested protein was the secreted form or ectodomain
# [1] = protein concentration 0.01625 µM
# [2] = protein concentration 0.1625 µM
# [3] = protein concentration 0.017475 µM
# [4] = protein concentration 0.17475 µM
# [5] = protein concentration 0.0225 µM
# 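Note: secreted proteins added to cultured cells, EdU pulse at the end, nuclei found by Hoechst imaging, EdU status from nuclear versus surrounding ring intensity ratio, PBS as neutral control.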
Sequence,percentage of EdU-negative (MCF7; [5]) [%],percentage of EdU-negative (MCF7; protein concentration 0.225 µM) [%],percentage of EdU-negative (hTERT-HMEC; [5]) [%],percentage of EdU-negative (hTERT-HMEC; protein concentration 0.225 µM) [%],also measured
MEVTCLLLLALIPFHCRGQGVYAPAQAQIVHAGQACVVKEDNISERVYTIREGDTLMLQCLVTGHPRPQVRWTKTAGSASDKFQETSVFNETLRIERIARTQGGRYYCKAENGVGVPAIKSIRVDVQYLDEPMLTVHQTVSDVRGNFYQEKTVFLRCTVNSNPPARFIWKRGSDTLSHSQDNGVDIYEPLYTQGETKVLKLKNLRPQDYASYTCQVSVRNVCGIPDKAITFRLTNTTAPPALKLSVNETLVVNPGENVTVQCLLTGGDPLPQLQWSHGPGPLPLGALAQGGTLSIPSVQARDSGYYNCTATNNVGNPAKKTVNLLVRSMKNATFQITPDVIKESENIQLGQDLKLSCHVDAVPQEKVTYQWFKNGKPARMSKRLLVTRNDPELPAVTSSLELIDLHFSDYGTYLCMASFPGAPVPDLSVEVNISSETVPPTISVPKGRAVVTVREGSPAELQCEVRGKPRPPVLWSRVDKEAALLPSGLPLEETPDGKLRLERVSRDMSGTYRCQTARYNGFNVRPREAQVQLNVQFPPEVEPSSQDVRQALGRPVLLRCSLLRGSPQRIASAVWRFKGQLLPPPPVVPAAAEAPDHAELRLDAVTRDSSGSYECSVSNDVGSAACLFQVSAKAYSPEFYFDTPNPTRSHKLSKNYSYVLQWTQREPDAVDPVLNYRLSIRQLNQHNAVVKAIPVRRVEKGQLLEYILTDLRVPHSYEVRLTPYTTFGAGDMASRIIHYTEPINSPNLSDNTCHFEDEKICGYTQDLTDNFDWTRQNALTQNPKRSPNTGPPTDISGTPEGYYMFIETSRPRELGDRARLVSPLYNASAKFYCVSFFYHMYGKHIGSLNLLVRSRNKGALDTHAWSLSGNKGNVWQQAHVPISPSGPFQIIFEGVRGPGYLGDIAIDDVTLKKGECPRKQTDPNKVVVMPGSGAPCQSSPQLWGPMAIFLLALQR [Q8NFP4],,,,,percentage of EdU-negative (MCF7; [1]): 25.1 ± 2%; percentage of EdU-negative (MCF7; [2]): 26.2 ± 1.5%; percentage of EdU-negative (hTERT-HMEC; [1]): 4.84 ± 1.1%; percentage of EdU-negative (hTERT-HMEC; [2]): 5.63 ± 0.16%
MEWPARLCGLWALLLCAGGGGGGGGAAPTETQPPVTNLSVSVENLCTVIWTWNPPEGASSNCSLWYFSHFGDKQDKKIAPETRRSIEVPLNERICLQVGSQCSTNESEKPSILVEKCISPPEGDPESAVTELQCIWHNLSYMKCSWLPGRNTSPDTNYTLYYWHRSLEKIHQCENIFREGQYFGCSFDLTKVKDSSFEQHSVQIMVKDNAGKIKPSFNIVPLTSRVKPDPPHIKNLSFHNDDLYVQWENPQNFISRCLFYEVEVNNSQTETHNVFYVQEAKCENPEFERNVENTSCFMVPGVLPDTLNTVRIRVKTNKLCYEDDKLWSNWSQEMSIGKKRNSTLYITMLLIVPVIVAGAIIVLLLYLKRLKIIIFPPIPDPGKIFKEMFGDQNDDTLHWKKYDIYEKQTKEETDSVVLIENLKKASQ,,,,,percentage of EdU-negative (MCF7; [3]): 26.4 ± 0.86%; percentage of EdU-negative (MCF7; [4]): 26.6 ± 2%; percentage of EdU-negative (hTERT-HMEC; [3]): 5.5 ± 0.74%; percentage of EdU-negative (hTERT-HMEC; [4]): 5.19 ± 0.27%
MEYQILKMSLCLFILLFLTPGILCICPLQCICTERHRHVDCSGRNLSTLPSGLQENIIHLNLSYNHFTDLHNQLTQYTNLRTLDISNNRLESLPAHLPRSLWNMSAANNNIKLLDKSDTAYQWNLKYLDVSKNMLEKVVLIKNTLRSLEVLNLSSNKLWTVPTNMPSKLHIVDLSNNSLTQILPGTLINLTNLTHLYLHNNKFTFIPDQSFDQLFQLQEITLYNNRWSCDHKQNITYLLKWMMETKAHVIGTPCSTQISSLKEHNMYPTPSGFTSSLFTVSGMQTVDTINSLSVVTQPKVTKIPKQYRTKETTFGATLSKDTTFTSTDKAFVPYPEDTSTETINSHEAAAATLTIHLQDGMVTNTSLTSSTKSSPTPMTLSITSGMPNNFSEMPQQSTTLNLWREETTTNVKTPLPSVANAWKVNASFLLLLNVVVMLAV,24.1 ± 0.32,27.6 ± 1.6,5.851 ± 0.022,10.4 ± 1.5,
MFCPLKLILLPVLLDYSLGLNDLNVSPPELTVHVGDSALMGCVFQSTEDKCIFKIDWTLSPGEHAKDEYVLYYYSNLSVPIGRFQNRVHLMGDILCNDGSLLLQDVQEADQGTYICEIRLKGESQVFKKAVVLHVLPEEPKELMVHVGGLIQMGCVFQSTEVKHVTKVEWIFSGRRAKEEIVFRYYHKLRMSVEYSQSWGHFQNRVNLVGDIFRNDGSIMLQGVRESDGGNYTCSIHLGNLVFKKTIVLHVSPEEPRTLVTPAALRPLVLGGNQLVIIVGIVCATILLLPVLILIVKKTCGNKSSVNSTVLVKNTKKTNPEIKEKPCHFERCEGEKHIYSPIIVREVIEEEEPSEKSEATYMTMHPVWPSLRSDRNNSLEKKSGGGMPKTQQAF [Q86YT9],23.21 ± 0.041,24.8 ± 2.1,4.64 ± 0.38,5.35 ± 1.2,
MFFWCACCLMVAWRVSASDAEHCPELPPVDNSIFVAKEVEGQILGTYVCIKGYHLVGKKTLFCNASKEWDNTTTECRLGHCPDPVLVNGEFSSSGPVNVSDKITFMCNDHYILKGSNRSQCLEDHTWAPPFPICKSRDCDPPGNPVHGYFEGNNFTLGSTISYYCEDRYYLVGVQEQQCVDGEWSSALPVCKLIQEAPKPECEKALLAFQESKNLCEAMENFMQQLKESGMTMEELKYSLELKKAELKAKLL,24.2 ± 1.2,27.8 ± 3.5,5.33 ± 0.68,12 ± 1.5,
MFHQIWAALLYFYGIILNSIYQCPEHSQLTTLGVDGKEFPEVHLGQWYFIAGAAPTKEELATFDPVDNIVFNMAAGSAPMQLHLRATIRMKDGLCVPRKWIYHLTEGSTDLRTEGRPDMKTELFSSSCPGGIMLNETGQGYQRFLLYNRSPHPPEKCVEEFKSLTSCLDSKAFLLTPRNQEACELSNN,23.57 ± 0.056,30.2 ± 0.5,4.08 ± 0.27,9.42 ± 0.84,
MFHSSAMVNSHRKPMFNIHRGFYCLTAILPQICICSQFSVPSSYHFTEDPGAFPVATNGERFPWQELRLPSVVIPLHYDLFVHPNLTSLDFVASEKIEVLVSNATQFIILHSKDLEITNATLQSEEDSRYMKPGKELKVLSYPAHEQIALLVPEKLTPHLKYYVAMDFQAKLGDGFEGFYKSTYRTLGGETRILAVTDFEPTQARMAFPCFDEPLFKANFSIKIRRESRHIALSNMPKVKTIELEGGLLEDHFETTVKMSTYLVAYIVCDFHSLSGFTSSGVKVSIYASPDKRNQTHYALQASLKLLDFYEKYFDIYYPLSKLDLIAIPDFAPGAMENWGLITYRETSLLFDPKTSSASDKLWVTRVIAHELAHQWFGNLVTMEWWNDIWLKEGFAKYMELIAVNATYPELQFDDYFLNVCFEVITKDSLNSSRPISKPAETPTQIQEMFDEVSYNKGACILNMLKDFLGEEKFQKGIIQYLKKFSYRNAKNDDLWSSLSNSCLESDFTSGGVCHSDPKMTSNMLAFLGENAEVKEMMTTWTLQKGIPLLVVKQDGCSLRLQQERFLQGVFQEDPEWRALQERYLWHIPLTYSTSSSNVIHRHILKSKTDTLDLPEKTSWVKFNVDSNGYYIVHYEGHGWDQLITQLNQNHTLLRPKDRVGLIHDVFQLVGAGRLTLDKALDMTYYLQHETSSPALLEGLSYLESFYHMMDRRNISDISENLKRYLLQYFKPVIDRQSWSDKGSVWDRMLRSALLKLACDLNHAPCIQKAAELFSQWMESSGKLNIPTDVLKIVYSVGAQTTAGWNYLLEQYELSMSSAEQNKILYALSTSKHQEKLLKLIELGMEGKVIKTQNLAALLHAIARRPKGQQLAWDFVRENWTHLLKKFDLGSYDIRMIISGTTAHFSSKDKLQEVKLFFESLEAQGSHLDIFQTVLETITKNIKWLEKNLPTLRTWLMVNT [Q6P179],25.63 ± 0.041,25.5 ± 0.38,4.8 ± 0.71,5.45 ± 0.3,
